The values that follow come from US20210070855A1 (NANJING LEGEND BIOTECH, published 2021).

Where two headings read alike, the source gives them in different places.

Assay [1] concerns the target T1, human CD47 on cells (human, UniProt Q08722 19-323).
T1 construct: also called CHO-K1/huCD47; human CD47 over-expressed in CHO-K1 cells
Description: flow cytometry on CHO-K1/huCD47 cells; x axis Log(nM), unit taken from the axis.
Description: (§1) Binding to cell-expressed human CD47 was evaluated on human CD47 over-expressing CHO cells (GenScript, Cat #M00581). Anti-CD47 antibody dilution series was prepared in FACS buffer. CHO-K1/human CD47 cells were transferred to a 96-well U-bottom plate and anti-CD47 antibody dilution was added. […] The cells were then washed twice with wash buffer. Cells were analyzed for binding by FACSCalibur (BD Bioscience, San Jose, Calif.) and Flowjo software.

The target of assay [2] is T1, human CD47 on cells. As to the kind of experiment: flow cytometry, blocking of human SIRPα binding to CHO-K1/huCD47 cells; the box on the sheet is labelled EC50; unit taken from the axis. Background: A flow cytometer gives signals particle by particle.
Description: (§2) After 30 minutes incubation at 4° C., cells were washed twice with FACS buffer.
In assay [3] the target is T2, CD47 protein.
T2 construct: also called CD47 (ELISA antigen); not shown: The carrier of the coated recombinant protein (an Fc tag as in CD47-Fc, or a His tag as in CD47-His)
Description: ELISA on CD47 protein; x axis is log10 of mAb (ng/ml), unit taken from the axis. In general terms: ELISA stands for enzyme-linked immunosorbent assay.

Assay [4] concerns the target T2, CD47 protein. As to the kind of experiment: ELISA on CD47 protein; x axis is log10 of mAb (ng/ml).
Assay [5] addresses T1, human CD47 on cells. As to the kind of experiment: flow cytometry on CHO-K1/huCD47 cells; x axis Log(nM).
Description: as §1
Assay [6] deals with T3, cynomolgus monkey CD47 on CHO-K1 cells (cynomolgus monkey, UniProt A0A5F8AK49 19-323 (rhesus entry)).
T3 construct: whole, on cells; also called CHO-K1/cyno CD47; CHO-K1/cynoCD47
Description: flow cytometry on CHO-K1/cyno CD47 cells.
Description: (§3) Briefly, binding to cell-expressed cyno CD47 was evaluated on cynomolgus monkey CD47 over-expressing CHO cells. Anti-CD47 antibody dilution series was prepared in FACS buffer. CHO-K1/cynomolgus monkey CD47 cell were transferred to a 96-well U-bottom plate and add CD47 antibody dilution. After 30 minutes incubation at 4° C., cells were washed twice with FACS buffer. […] The cells were washed twice with wash buffer, and then analyzed for binding by using FACSCalibur (BD Bioscience, San Jose, Calif.) and Flowjo software.

The target in assay [7] is T3, cynomolgus monkey CD47 on CHO-K1 cells. Description: flow cytometry on CHO-K1/cyno CD47 cells; unit taken from the axis.
Description: as §3
Assay [8] has as its target T1, human CD47 on cells. Description: flow cytometry, blocking of human SIRPα binding to CHO-K1/huCD47 cells.
Description: as §2
A further assay concerns the target T4, human CD47-His protein (human, UniProt Q08722 19-139, limits assumed).
T4 construct: It includes the signal peptide and the membrane-spanning region, which a soluble protein would lack; not shown: His tag
Description: SPR (Biacore T200), antibody captured, human CD47-His as analyte, 1:1 model. In general terms: In SPR one partner is held on a chip, and binding of the other changes the refractive index at the surface.

The target in assay [9] is T1, human CD47 on cells. As to the kind of experiment: flow cytometry on CHO-K1/huCD47 cells; unit taken from the axis.
Description: as §1
In assay [10] the target is T1, human CD47 on cells. Description: flow cytometry, blocking of human SIRPα binding to CHO-K1/huCD47 cells; the box on the sheet is labelled EC50; unit taken from the axis. The source holds these as a separate data set.
In assay [11] the target is T1, human CD47 on cells. As to the kind of experiment: flow cytometry on red blood cells; unit taken from the axis.
Assay [12] concerns the target T3, cynomolgus monkey CD47 on CHO-K1 cells. Description: flow cytometry on CHO-K1/cynoCD47 cells; unit taken from the axis.
Description: as §3

B1: 98G5F6 (antibody, V domains shown)
VH: QVQLQQSGPQLVRPGASVKISCKASGYSFTNYWMHWMKQRPGQGLEWIGMIDPSDSETRLNQQFKDKATLTVDKSSSTAYMQLSSPTSEDSAVYYCARLGRYYFDFWGQGTTLTVSS
VL: NIVMTQSPKSMSVSVGERVTLSCRASEIVGTYVSWYQQKPEQSPKLLIYGASNRFTGVPDRFTGSRSATDFSLTISNVQAEDLADYLCGQSYDSPYTFGGGTKLEIK
notes: purified murine anti-CD47 hybridoma antibody; same VH and VL as 98G5F11; also called 05-98G5F6
Usually EC50 stands for the concentration giving half of the maximal effect. One may read the IC50 as the midpoint of a concentration-inhibition curve. As to B1, the figures for the EC50 in the assay with human CD47 on cells [1] and in the assay with CD47 protein [3] were 3.48 nM and 3.53 ng/mL, respectively. In addition, in the assay with human CD47 on cells [2], the IC50 is 6.97 nM.

B2: 98G5F11 (antibody, V domains shown)
VH: QVQLQQSGPQLVRPGASVKISCKASGYSFTNYWMHWMKQRPGQGLEWIGMIDPSDSETRLNQQFKDKATLTVDKSSSTAYMQLSSPTSEDSAVYYCARLGRYYFDFWGQGTTLTVSS
VL: NIVMTQSPKSMSVSVGERVTLSCRASEIVGTYVSWYQQKPEQSPKLLIYGASNRFTGVPDRFTGSRSATDFSLTISNVQAEDLADYLCGQSYDSPYTFGGGTKLEIK
notes: purified murine anti-CD47 hybridoma antibody; same VH and VL as 98G5F6; also called 06-98G5F11
For orientation: EC50 (read off the curve) means the concentration that produces a half-maximal response. Turning to B2, the “EC50 (read off the curve)” value with CD47 protein [4] was about 9 ng/mL; with human CD47 on cells [5], about 10 nM.

B3: 98E2E7 (antibody, V domains shown)
VH: QVQLQQSGPQLVRPGASVKISCKASGYSFTNHWMHWMKQRPGQGLEWIGMIDPSDSETRLNQQFKDKATLTVDKSSSTAYMQLSSPTSEDSAVFYCARLGRYYFDYWGQGTTLTVSS
VL: NIVMTQSPKSMSVSVGERVTLSCRASDIVGTYVSWYQQKPEQSPKLLIYGASNRYTGVPDRFTGSRSATDFSLTISNVQAEDLADYLCGQSYDSPYTFGGGTKLEIK
notes: purified murine anti-CD47 hybridoma antibody; same VH and VL as 98E2E12; also called 03-98E2E7
As to B3, the “EC50 (read off the curve)” value is about 3 nM in assay [6] and about 7 nM in the assay with human CD47 on cells [5]. The molecule also came in with an EC50 with CD47 protein [3] of 3.78 ng/mL.

B4: 112E5H7 (antibody, V domains shown)
VH: QVQLQQSGPQLVRPGASVKISCKASGYSFTNNWMHWMKQRPGQGLEWIGMIDPSDSETRLNQQFRDKATLTVDKTSSTAYMQLSSPTSEDSAVYYCARLGRYYFDYWGLGTTLTVSS
VL: NIVMTQSPKSMSVSVGERVTMNCRASEIVGTYVSWYQQKPEQSPKLLIYGAFNRYTGVPDRFTGSRSGTDFSLNISNVQAEDLADYLCGQSYDSPYTFGGGTKLEIK
notes: purified murine anti-CD47 hybridoma antibody; same VH and VL as 112E5D9 and 112E5F2; also called 12-112E5H7
Consider B4, for which the values for the 50% effective concentration (EC50) (in [7]; in the assay with CD47 protein [3]) were 1.53 nM and 9.81 ng/mL, respectively. The IC50 with human CD47 on cells [2] was determined as 3.4 nM.

B5: 55F2C4 (antibody, V domains shown)
VH: QVQLQQSGPQLVRPGASVKISCKASGYSFTNYWMHWMKQRPGQGLEWIGMIDPSDSETRLNQQFKDKATLAVDKSSSTAYMQLSSPTSEDSAVYYCARLGRYYFDYWGQGTTLTVSS
VL: NIVMTQSPKSMYVSVGERVTLICRASEIVGTYVSWYQQKPEQSPKLLIYGASNRYTGVPDRFTGSRSATDFSLTISNVQAEDLADYLCGQSYDSPYTFGGGTKLEIK
notes: also called 01-55F2C4
With B5, the EC50 in assay [7] was 5.75 nM; in the assay with human CD47 on cells [1], 52.5 nM; in the assay with CD47 protein [3] it was 1.39 ng/mL. For the same molecule, the “IC50 (read off the curve)” value in the assay with human CD47 on cells [8] was about 5 nM.

B6: 112E5D9 (antibody, V domains shown)
VH: QVQLQQSGPQLVRPGASVKISCKASGYSFTNNWMHWMKQRPGQGLEWIGMIDPSDSETRLNQQFRDKATLTVDKTSSTAYMQLSSPTSEDSAVYYCARLGRYYFDYWGLGTTLTVSS
VL: NIVMTQSPKSMSVSVGERVTMNCRASEIVGTYVSWYQQKPEQSPKLLIYGAFNRYTGVPDRFTGSRSGTDFSLNISNVQAEDLADYLCGQSYDSPYTFGGGTKLEIK
notes: purified murine anti-CD47 hybridoma antibody; same VH and VL as 112E5F2 and 112E5H7; also called 10-112E5D9
With B6, the EC50 amounted to 1.45 nM in assay [7], 3.47 nM in the assay with human CD47 on cells [1] and 4.77 ng/mL with CD47 protein [3]. Also, the “IC50 (read off the curve)” value with human CD47 on cells [8] was about 4 nM.

B7: 112E5F2 (antibody, V domains shown)
VH: QVQLQQSGPQLVRPGASVKISCKASGYSFTNNWMHWMKQRPGQGLEWIGMIDPSDSETRLNQQFRDKATLTVDKTSSTAYMQLSSPTSEDSAVYYCARLGRYYFDYWGLGTTLTVSS
VL: NIVMTQSPKSMSVSVGERVTMNCRASEIVGTYVSWYQQKPEQSPKLLIYGAFNRYTGVPDRFTGSRSGTDFSLNISNVQAEDLADYLCGQSYDSPYTFGGGTKLEIK
notes: purified murine anti-CD47 hybridoma antibody; same VH and VL as 112E5D9 and 112E5H7; also called 11-112E5F2
Consider B7, for which the “EC50 (read off the curve)” value with CD47 protein [4] was about 2 ng/mL. Besides, the EC50 in assay [7] was 1.81 nM; in the assay with human CD47 on cells [1], 3.15 nM. In the assay with human CD47 on cells [2], this molecule displayed a half-inhibitory concentration (IC50) of 2.98 nM.

B8: 107F11B11 (antibody, V domains shown)
VH: EVQLQQSGAEFVKPGASVKLSCTASGFNIEDTYMHWVKQRPEQGLEWIGMIDPANGKTKYGPRFQDKATVTADTSSNTANLQLSSLTSEDTAVYYCADGIGYYVGAMDYWGQGTSVTVSS
VL: DIQMNQSPSSLSASLGDTITITCHASQNINVWLSWYQQKPGNIPKLLIYKASNLHTGVPSRFSGSGSGTGFTLTISSLQPEDIATYYCQQGHSYPYTFGGGTKLEIK
notes: purified murine anti-CD47 hybridoma antibody; same VH and VL as 107F11C4 and 107F11F10; also called 07-107F11B11
In the case of B8, the “EC50 (read off the curve)” value in [6] is about 1 nM; with CD47 protein [4], about 5 ng/mL. Besides, in the assay with human CD47 on cells [8], the “IC50 (read off the curve)” value was about 2 nM.

B9: 108VH4.M4_VL1.M1-hIgG1 (antibody)
heavy: not shown
light: EIVLTQSPATLSLSPGERATLSCRASENVGTYISWYQQKPGQAPRLLIYGASNRYTGIPARFSGSGSGTDFTLTISSLEPEDFAVYYCGESYGHLYTFGGGTKVEIKRTVAAPSVFIFPPSDEQLKSGTASVVCLLNNFYPREAKVQWKVDNALQSGNSQESVTEQDSKDSTYSLSSTLTLSKADYEKHKVYACEVTHQGLSSPVTKSFNRGEC
notes: Humanized 108C10A6, human IgG1 with kappa light chain; also called 108VH4.M4_VL1.M1-hlgG1; 108VH4.M4_VL1.M1-hIgG1-Ka
Usually Kd stands for the concentration at which binding is half-saturated. Usually koff stands for the first-order rate constant of dissociation. Broadly, the kon is the second-order rate constant of association. Regarding B9, the Kd with human CD47-His protein is 1.4 nM. The molecule further came in with a koff with human CD47-His protein of 0.00043 s⁻¹. Moreover, the kon with human CD47-His protein was 310000 M⁻¹ s⁻¹. Further, the values for the EC50 (with human CD47 on cells [9]; with human CD47 on cells [11]; in assay [12]) were 0.299 nM, 2.62 nM and 0.262 nM, respectively. The molecule further returned an IC50 in the assay with human CD47 on cells [10] of 0.911 nM.

B10: 108VH4.M4_VL1.M1-hIgG2 (antibody)
heavy: EVQLVQSGAEVKKPGSSVKVSCKASGYSFTHHWIHWVRQAPGQGLEWMGMIDASDSETRLSQKFKDRVTITADKSTSTAYMELSSLRSEDTAVYYCARLGRYYFDYWGQGTTVTVSSASTKGPSVFPLAPCSRSTSESTAALGCLVKDYFPEPVTVSWNSGALTSGVHTFPAVLQSSGLYSLSSVVTVPSSNFGTQTYTCNVDHKPSNTKVDKTVERKCCVECPPCPAPPVAGPSVFLFPPKPKDTLMISRTPEVTCVVVDVSHEDPEVQFNWYVDGVEVHNAKTKPREEQFNSTFRVVSVLTVVHQDWLNGKEYKCKVSNKGLPAPIEKTISKTKGQPREPQVYTLPPSREEMTKNQVSLTCLVKGFYPSDIAVEWESNGQPENNYKTTPPMLDSDGSFFLYSKLTVDKSRWQQGNVFSCSVMHEALHNHYTQKSLSLSPGK
light: EIVLTQSPATLSLSPGERATLSCRASENVGTYISWYQQKPGQAPRLLIYGASNRYTGIPARFSGSGSGTDFTLTISSLEPEDFAVYYCGESYGHLYTFGGGTKVEIKRTVAAPSVFIFPPSDEQLKSGTASVVCLLNNFYPREAKVQWKVDNALQSGNSQESVTEQDSKDSTYSLSSTLTLSKADYEKHKVYACEVTHQGLSSPVTKSFNRGEC
notes: Humanized 108C10A6, human IgG2 with kappa light chain; also called 108VH4.M4_VL1.M1-hlgG2; 108VH4.M4_VL1.M1-hIgG2-Ka
In the assay with human CD47-His protein, B10 registered a Kd of 1.5 nM, a koff of 0.00044 s⁻¹ and a kon of 290000 M⁻¹ s⁻¹. In the assay with human CD47 on cells [9], this molecule registered an EC50 of 1.4 nM. The molecule also had an IC50 with human CD47 on cells [10] of 1.87 nM. The midpoint of the response in the assay with human CD47 on cells [11], the EC50, lay at 5.51 nM. In assay [12], this molecule yielded an EC50 of 1.31 nM.

B11: 108C10F5 (antibody, V domains shown)
VH: QMQLQQSGPQLVRPGASVKISCKTSGYSFTHHWIHWMKQRPGQGLEWIGMIDPSDSETRLSQKFKDKATLTVDASSSTAYMQLNSPTSEDSALYFCARLGRYYFDYWGQGTTLTVSS
VL: NIVMTQSPRSMSMSVGERVTLSCKASENVGTYISWYQQKPDQSPKLLIYGASNRYTGVPDRFTGSGSGTDFTLTISTVQAEDLADYHCGESYGHLYTFGGGTKLEIK
notes: purified murine anti-CD47 hybridoma antibody; separate subclone with its own curves; same VH and VL as 108C10A6; also called 09-108C10F5
Regarding B11, the EC50 in [7] was 2.01 nM; in the assay with CD47 protein [3] it was 23.4 ng/mL. The “EC50 (read off the curve)” value with human CD47 on cells [5] is about 5 nM.
